Assay results from the nanobody polyreactivity screen of Harvey et al. (2022).

Experiment: yeast display, Sf9 membrane polyspecificity reagent, FACS + sequencing; frameworks hold sequencing errors
Summary of the method: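 Using colony PCR, genes from sorted yeast display clones were amplified, then sequenced on MiSeq at 2 × 250 and filtered by CDR length. The clones had been stained with 10% biotinylated, detergent-solubilized Sf9 membrane reagent for 1 hour at 4 °C and sorted by FACS into low and high (top ~1%) gates on anti-HA and streptavidin fluorescence. Polyreactivity labels come from the gate of origin.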

Sequence | polyreactivity (PSR sort gate)
QVQLVESGGGLVQAGGSLRLSCAASGRTFVTYAMGWYRQAPGKERELVAAISASGGSTYYADSVKGRFTISRDNAKNTVYLQMNSLKPEDTAVYYCAKTYFLATPYGYWGQGTQVTVSS | low polyreactivity
QVQLVESGGGLVQAGGSLRLSCAASGRTFVVYAMGWYRQAPGKERELVAAISRGGSRTYYADSVKGRFTISRDNAKNTVYLQMNSLKPEDTAVYYCAKVIPAYPDSDYNYWGQGTQVTVSS | high polyreactivity
QVQLVESGGGLVQAGGSLRLSCAASGRTFVWNVMGWYRQAPGKEREFVAAISGGSTYYADSVKGRFTISRDNAKNTVYLKMNSLKQEDTPVYYCAAASKLHPRYEYWGQGTQVTVSS | low polyreactivity
QVQLVESGGGLVQAGGSLRLSCAASGRTFVWNVMGWYRQAPGKEREFVAAISGGSTYYADSVKGRFTISRDNAMNTVYLEMNSLKPEDTAVYYCADASKLHPRYEYWGQGTQVTVSS | low polyreactivity
QVQLVESGGGLVQAGGSLRLSCAASGRTFVYNAMGWYRQAPGKERELVAAIDGGGDRTYYADSVKGRFTISRDNAKNTVYLQMNSLKQEDTAVYFCARDPGDTYYYSYPEGDYWGQGTQVTVSS | low polyreactivity
QVQLVESGGGLVQAGGSLRLSCAASGRTFVYNAMGWYRQAPGKERELVAAISFGGGNTYYADSVKGRFTISRDNAKNTVYLQMNSLKPEYTAVYYCAARAGAGPLDYDYWGQGTQVTVSS | low polyreactivity
QVQLVESGGGLVQAGGSLRLSCAASGRTFVYNAMGWYRQAPGKERELVAAISSSGGSTRYADSVKGRFTISRDNAKNTVYLQMNSLKPEDTAVYYCNRLRYSNRYDSWGQGTQVTVSS | high polyreactivity
QVQLVESGGGLVQAGGSLRLSCAASGRTFVYNAMGWYRQAPGKERELVAAITRSGGRTYYADSVKGRFTISRDNAKNTVYLQMNSLKPEDTAVYYCSARISRWYAYGTDIKEGDYWGQGTQVTVSS | low polyreactivity
QVQLVESGGGLVQAGGSLRLSCAASGRTFVYNAMGWYRQAPGKERELVAGITNGGSTNYADSVKGRFTISRDNAKNTVYLQMNSLKPEDTAVYYCAADSRVYPYYFGDFGYWGQGTQVTVSS | low polyreactivity
QVQLVESGGGLVQAGGSLRLSCAASGRTFVYNAMGWYRQAPGKERELVATIRSSGGSTYYADSVKGRFTISRDNAKNTVYLQMNSLKPEDTAVYYCAARWRPYGKFYYWGQGTQVTVSS | high polyreactivity
QVQLVESGGGLVQAGGSLRLSCAASGRTFVYNAMGWYRQAPGKERQLVAGITNGGSTNYADSVKGRFTISRDNAKNTVYLQMNSLKPEDTAVYYCAADSRVYPYYFGHFGFWGQGTQVTVSS | low polyreactivity
QVQLVESGGGLVQAGGSLRLSCAASGRTFVYNAMGWYRQARGKEREFVAAISSGGGTNYADSVKGRFTISRDNAKNTVYLQMNSLQPEDTAVYYCAAGSVSIFRGYRDYYNPKEYDYCGQGTQVTVSS | low polyreactivity
QVQLVESGGGLVQAGGSLRLSCAASGRTFVYYAMGWYRPAPGKERELVAAISSRGGSTYYADSVKGRFTISRDNAKNTVYLQMNSLKPEDTAVYYCAAVKGPERPTSPYDYWGQGTQVTVSS | high polyreactivity
QVQLVESGGGLVQAGGSLRLSCAASGRTFVYYAMGWYRQAPGKERELVAAISSRGGSTYYADTVKGRFTISRDYAKNSVYLQMYSLKPEDTAVYYCAAVIGPERPTSPFDFWGQGTQVTVSS | high polyreactivity
QVQLVESGGGLVQAGGSLRLSCAASGRTFVYYAMGWYRQAPGKERELVAAITSVGSTYYADSVKGRCTISRDNAKNTVYLQMNSLKPEDTAVYSCAKDTWAYPYYWPYDDYWGHGTQVTVSS | low polyreactivity
QVQLVESGGGLVQAGGSLRLSCAASGRTFVYYAMGWYRQAPGKERELVARISSGGSTYYADSVKGRFTISRDNAKNTVYLQMYSLKPEDTAVYYCAADAWYVWEYWWQPEDDYWGQGSQVTVSS | high polyreactivity

Sequence | polyreactivity (PSR sort gate)
QVQLVESGGGLVQAGGSLRLSCAASGRTFVYYAMGWYRQAPGKERELVASISSGGGSTNYADSVKGRFTISRDNAKNTVYLQMNSLKPEDTAVYYCAVDTPRYRYYRTSYDYWGQGTQVTVSS | low polyreactivity
QVQLVESGGGLVQAGGSLRLSCAASGRTFVYYTLGWYRQPPGKERELVARISAGGGITYYADSVKGRFTISRDNAKNTVYLQMNSLNREDTAVYYCAADYWFTYRRPAYEYAYWGQGTQVTVSS | high polyreactivity
QVQLVESGGGLVQAGGSLRLSCAASGRTFWAYAMGWYRQAPGKERELVAAITTSGGSTNYADSVKGRFTISRDNAKNTVYLQMNSLKPEDTAVYYCNADPTYHVVNGVGYLGQGTQVTVSS | low polyreactivity
QVQLVESGGGLVQAGGSLRLSCAASGRTFWAYAMVWYRQAPGKERELVADITNGGSTYYADSVKGRFTISRDNAKNTVYLQMNSLKPEDTAVYYCNALTHWAPASYEYDYWGQGTQVTVSS | low polyreactivity
QVQLVESGGGLVQAGGSLRLSCAASGRTFWFYTMGWYRQAPGKERELVAAISSGGSTNYADSVKGRFTISRDNAKNTVYLQMNSLKPEDTAVYYCNARFPVGPSEDAVWYYPKYDYWGQGTQVTVSS | low polyreactivity
QVQLVESGGGLVQAGGSLRLSCAASGRTFWFYTMGWYRQAPGKERELVADIRRSGGSTYYADSVKGRFTISRDNAKNTVYLQMNSLKPEDTAVYYCASDPRRLAAGYTRYVYWGQGTQVTVSS | high polyreactivity
QVQLVESGGGLVQAGGSLRLSCAASGRTFWGYTMGWYRQAPGKERELVAAITASGGSTRYADSVKGRFTISRDNAKNTVYLQMNSLKPEDTAVYYCASRGQYFTDYYYRGNYWGQGTQVTVSS | high polyreactivity
QVQLVESGGGLVQAGGSLRLSCAASGRTFWGYVMGWYRQAPGKERELVAAISRGDSTYYADSVKGRFTISRDNAKNTVYLQMNSLKPEDTAVYYCAKPGYYVRYGYWGQGTQVTVSS | high polyreactivity
QVQLVESGGGLVQAGGSLRLSCAASGRTFWIYAMGWYRQAPGKERELVAAITGSGGSTYYADSVKGRFTISRDNAKNTVYLQMNSLKPEDTAVYYCNARVPDSYKWSAYYSHDYWGQGTQVTVSS | low polyreactivity
QVQLVESGGGLVQAGGSLRLSCAASGRTFWKYAMGWYRQAPGKERELVAAITASGARTYYADSVKGRFTISRDNAKNTVYLQMNSLKPEDTAVYYCNAGSVSDRQMDYWGQGTQVTVSS | low polyreactivity
QVQLVESGGGLVQAGGSLRLSCAASGRTFWLNAMGWYRQAPGKERELVATISRGGSTNYADSVKGRFTISRDNANNTVYLQMNSLKPEDTAVYYCAARRYYWLRGYNYWGQGTQVTVSS | high polyreactivity
QVQLVESGGGLVQAGGSLRLSCAASGRTFWNYAMGCYRQAPGKERELVAAISSSGGTTYYADSVKGRFTISRDNAKNTVYLQMNTLKPEDTAVYYCAATGVSKPQRSFGYWGQGTQVTVSS | low polyreactivity
QVQLVESGGGLVQAGGSLRLSCAASGRTFWNYAMGWYRQAPGKERELVAAISSSGGTTYYADSVKGRFTISRDNAKNTVYLQMNSLKPEDTAVYYCAATGVSKPQRSFGYWGQGTQVTVSS | low polyreactivity
QVQLVESGGGLVQAGGSLRLSCAASGRTFWNYAMGWYRQAPGKEREMVAVIRFSDGSTYYADSVKGRFTISRDNAKNTVYLQMNSLKPEDTAVYYCAAKGPRRWGSGFDYWGQGTQVTVSS | low polyreactivity
QVQLVESGGGLVQAGGSLRLSCAASGRTFWTNAMGWYRQAPGKEREFVAAISWRGASTFYADSVKGRFTISRDNAKNTVYLQMNSLNPEDTAVYYCAAQSRTRSFYGKYDSWGQATQVTVSS | low polyreactivity
